Test results reported in patent publication WO2021237516A1 (dated 2021).

Legend:
SARS-CoV-2 S1 = SARS-CoV-2 S1 (SARS-CoV-2, UniProt P0DTC2 16-685)
SARS-CoV S1 = SARS-CoV S1 (SARS-CoV, UniProt P59594 14-667); test: competition ELISA as in Example 3.2: blocking of SARS-CoV S1 binding to hACE2

B1: Ab2001.08 (antibody, V domains shown)
VH: QVQLVQSGAEVKKPGSSVKVSCKASGGTFSSYAISWVRQAPGQGLEWMGRIIPIFGTANYAQKFQGRVTITADESTSTAYMELSSLRSEDTAVYYCASLASYSSGWEDVFDIWGQGTMVTVSS
VL: DIQMTQSPSSLSASVGDRVTITCRASQGISSWLAWYQQKPGKAPKLLIYDASNLETGVPSRFSGSGSGTDFTFTISSLQPEDIATYYCQQYDNLPLTFGGGTKVEIK
- Kd (SARS-CoV-2 S1): 2.93 nM

B2: Ab2001.10 (antibody, V domains shown)
VH: QVQLVQSGAEVKKPGASVKVSCKASGDTFSSFDINWVRQATGQGLEWMGWMHAGSGNAGYAQKFQGRVTMTRDTSISTAYMELSSLRSEDTAVYYCANYVPHGAFQIWGQGTMVTVSS
VL: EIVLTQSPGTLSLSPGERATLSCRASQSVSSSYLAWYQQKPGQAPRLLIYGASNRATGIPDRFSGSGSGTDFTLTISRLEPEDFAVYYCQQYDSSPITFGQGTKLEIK
- Kd (SARS-CoV-2 S1): 4.21 nM

B3: Ab2001.16 (bispecific antibody, V domains shown)
VH 1: EVQLVESGGGLVQPGGSLRLSCAASGFSFSNSDMHWVRQATGKGLEWVSAIGDSGDTYYSDSVKGRFTISRENAKSSLYLQMNSLRAEDTAVYYCARAANWGWDWYFDLWGRGTLVTVSS
VH 2: EVQLVETGGGLIQPGGSLRLSCAASGFTVSSNYMSWVRQAPGKGLEWVSVIYSGGSTYYADSVKGRFTISRDNSKNTLYLQMNSLRAEDTAVYYCARDAGPYGMDVWGQGTTVTVSS
VL: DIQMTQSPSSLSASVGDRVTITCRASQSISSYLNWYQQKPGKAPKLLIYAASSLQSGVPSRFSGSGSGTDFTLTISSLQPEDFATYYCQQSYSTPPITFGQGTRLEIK
- Kd (SARS-CoV-2 S1): 2.39 nM

B4: Ab2001.11 (antibody, V domains shown)
VH: EVQLVESGGGLVQPGGSLRLSCAASGFSFSNSDMHWVRQATGKGLEWVSAIGDSGDTYYSDSVKGRFTISRENAKSSLYLQMNSLRAEDTAVYYCARAANWGWDWYFDLWGRGTLVTVSS
VL: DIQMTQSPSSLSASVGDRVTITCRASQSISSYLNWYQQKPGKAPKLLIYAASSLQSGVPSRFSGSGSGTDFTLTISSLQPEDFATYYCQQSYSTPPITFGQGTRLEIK
- IC50 (SARS-CoV S1): 304 nM
